Here are results for one substance from PMC3291989.

This assay deals with catalase (PktA) from Psychrobacter piscatorii T-3 (Psychrobacter piscatorii T-3). Nature of the assay: SEC; gel filtration on two Protein PAK 300 columns, 0.1 M potassium phosphate buffer (pH 7.0), against mass standards; native mass compared with the subunit mass by SDS-PAGE.

Take “catalase (PktA) from Psychrobacter piscatorii T-3 (enzyme)”: the stoichiometry N (in general, a count of units in the complex or per binding partner) worked out at 4.
